Source: paper PMC7363144, “Cryo-electron microscopy structure and potential enzymatic function of human six-transmembrane epithelial antigen of the prostate 1 (STEAP1)” (The Journal of Biological Chemistry, 2020)

B1: Fab120.545 mutant R32LE (Fab, V domains shown)
VH: DVQVQESGPGLVKPSQSLSLTCTVTGYSITSDYAWNWIRQFPGNKLEWMGYISNSGSTSYNPSLKSRISITRDTSKNQFFLQLISVTTEDTATYYCARERNYDYDDYYYAMDYWGQGTTLTVSA
VL: DIVMSQSPSSLAVSVGEKVTMSCKSSQSLLYESNQKNYLAWYQQKPGQSPKLLIYWASTRESGVPDRFTGSGSGTDFTLTISSVKAEDLAVYYCQQYYNYPRTFGGGTKLEIK
notes: as the heavy chain of m2; variable region in PDB 6Y9B; as the light chain of m2 with R32E; variable region of the parent in PDB 6Y9B; source: gift from Genmab BV, produced at the authors' request
B2: Fab120.545 mutant D103HN,D105HN,D106HN (Fab, V domains shown)
VH: DVQVQESGPGLVKPSQSLSLTCTVTGYSITSDYAWNWIRQFPGNKLEWMGYISNSGSTSYNPSLKSRISITRDTSKNQFFLQLISVTTEDTATYYCARERNYNYNNYYYAMDYWGQGTTLTVSA
VL: DIVMSQSPSSLAVSVGEKVTMSCKSSQSLLYRSNQKNYLAWYQQKPGQSPKLLIYWASTRESGVPDRFTGSGSGTDFTLTISSVKAEDLAVYYCQQYYNYPRTFGGGTKLEIK
notes: as the heavy chain of m2 with D103N, D105N, D106N; variable region of the parent in PDB 6Y9B; as the light chain of m2; variable region in PDB 6Y9B; also called Fab-NNN; source: gift from Genmab BV, produced at the authors' request
B3: Fab120.545 mutant N99LD (Fab, V domains shown)
VH: DVQVQESGPGLVKPSQSLSLTCTVTGYSITSDYAWNWIRQFPGNKLEWMGYISNSGSTSYNPSLKSRISITRDTSKNQFFLQLISVTTEDTATYYCARERNYDYDDYYYAMDYWGQGTTLTVSA
VL: DIVMSQSPSSLAVSVGEKVTMSCKSSQSLLYRSNQKNYLAWYQQKPGQSPKLLIYWASTRESGVPDRFTGSGSGTDFTLTISSVKAEDLAVYYCQQYYDYPRTFGGGTKLEIK
notes: as the heavy chain of m2; variable region in PDB 6Y9B; as the light chain of m2 with N99D; variable region of the parent in PDB 6Y9B; source: gift from Genmab BV, produced at the authors' request
B4: Fab120.545 mutant D103HA,D105HA,D106HA (Fab, V domains shown)
VH: DVQVQESGPGLVKPSQSLSLTCTVTGYSITSDYAWNWIRQFPGNKLEWMGYISNSGSTSYNPSLKSRISITRDTSKNQFFLQLISVTTEDTATYYCARERNYAYAAYYYAMDYWGQGTTLTVSA
VL: DIVMSQSPSSLAVSVGEKVTMSCKSSQSLLYRSNQKNYLAWYQQKPGQSPKLLIYWASTRESGVPDRFTGSGSGTDFTLTISSVKAEDLAVYYCQQYYNYPRTFGGGTKLEIK
notes: as the heavy chain of m2 with D103A, D105A, D106A; variable region of the parent in PDB 6Y9B; as the light chain of m2; variable region in PDB 6Y9B; also called Fab-AAA; source: gift from Genmab BV, produced at the authors' request

These binders were tested against T1, six-transmembrane epithelial antigen of the prostate 1 (STEAP1), full-length human, C-terminal Strep-tag (Homo sapiens) (assay: SEC; 25 µl STEAP1 (0.28 mg/ml) mixed with a ~2-fold molar excess of Fab variant (35 µl at 0.5 mg/ml), several hours, Superdex 200 increase 3.2/300, 20 mM Tris pH 7.8, 200 mM NaCl, 0.08% digitonin; heme absorbance at 412 nm and tryptophan fluorescence). Details: both partners purified.
T1 construct: human STEAP1, UniProtKB Q9UHE8, full length; codon-optimized DNA from GeneArt; Homotrimer in the cryo-EM structure; in digitonin micelles; The PDB model holds residues 67-312 only; source: HEK293 GnTI- suspension cells, purified in digitonin (Strep-Tactin resin, SEC)
T1 sequence (Q9UHE8 2-339): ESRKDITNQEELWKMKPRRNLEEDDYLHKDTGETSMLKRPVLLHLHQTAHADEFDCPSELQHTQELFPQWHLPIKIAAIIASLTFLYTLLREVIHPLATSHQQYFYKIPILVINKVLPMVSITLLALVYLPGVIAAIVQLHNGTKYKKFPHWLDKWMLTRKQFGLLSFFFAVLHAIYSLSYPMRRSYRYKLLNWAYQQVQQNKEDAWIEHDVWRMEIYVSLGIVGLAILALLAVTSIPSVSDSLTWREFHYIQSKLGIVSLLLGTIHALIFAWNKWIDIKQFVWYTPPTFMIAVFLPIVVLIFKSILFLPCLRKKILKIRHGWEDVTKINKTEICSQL

Binding result, no binding:
B1
B2
B3
B4
